Test results published in patent US20190345227A1 (HONG KONG UNIVERSITY OF SCIENCE AND TECHNOLOGY, published 2019).

B1: SpyTag-elastin-like polypeptide-SpyTag-elastin-like polypeptide-SpyTag (other)
chain: MKGSSHHHHHHVDAHIVMVDAYKPTKLDGHGVGVPGVGVPGVGVPGEGVPGVGVPGVGVPGVGVPGVGVPGEGVPGVGVPGVGVPGVGVPGVGVPGEGVPGVGVPGVGELAHIVMVDAYKPTKTSVPGVGVPGVGVPGEGVPGVGVPGVGVPGVGVPGVGVPGEGVPGVGVPGVGVPGVGVPGVGVPGEGVPGVGVPGVGVPGGLLDAHIVMVDAYKPTKLEWKK
notes: Recombinant protein with three SpyTags; It forms the covalent network with BCB; also called AAA; SpyTag-ELP-SpyTag-ELP-SpyTag
B2: SpyTag-elastin-CarHC-elastin-SpyTag (other)
chain: MKGSSHHHHHHVDAHIVMVDAYKPTKLDGHGVGVPGVGVPGVGVPGEGVPGVGVPGVGVPGVGVPGVGVPGEGVPGVGVPGVGVPGVGVPGVGVPGEGVPGVGVPGVGELPEDLGTGLLEALLRGDLAGAEALFRRGLRFWGPEGVLEHLLLPVLREVGEAWHRGEIGVAEEHLASTFLRARLQELLDLAGFPPGPPVLVTTPPGERHEIGAMLAAYHLRRKGVPALYLGPDTPLPDLRALARRLGAGAVVLSAVLSEPLRALPDGALKDLAPRVFLGGQGAGPEEARRLGAEYMEDLKGLAEALWLPRGPEKEAITSVPGVGVPGVGVPGEGVPGVGVPGVGVPGVGVPGVGVPGEGVPGVGVPGVGVPGVGVPGVGVPGEGVPGVGVPGVGVPGGLLDAHIVMVDAYKPTKLEWKK
notes: Recombinant telechelic fusion protein (41 kDa) expressed in E. coli and purified on HisTrap; also called ACA; SpyTag-ELP-carHC-ELP-SpyTag

Tests used:
[1] = molecular target: T1, SpyCatcher-elastin-CarHC-elastin-SpyCatcher; test: Dynamic shear rheology and erosion tests of the covalently cross-linked (SpyTag-SpyCatcher) hydrogel
T1 construct: Recombinant telechelic fusion protein (68 kDa) with two TEV protease sites, expressed in E. coli; also called BCB; SpyCatcher-ELP-carHC-ELP-SpyCatcher
From the text: Protein drugs, an important category of modem therapeutics, have a short half-life time inside the body because of rapid plasma clearance and proteolytic degradation, which constitutes a fundamental challenge for their delivery. The feasibility of using the photoresponsive CarHC-ELP hydrogel system to encapsulate and release protein molecules in a controlled manner was investigated. Two recombinant proteins, SpyTag-elastin-like polypeptide-SpyTag-elastin-like polypeptide-SpyTag (represented by the structural linkage “AAA”) (FIG. 6 and FIG. 13) and BCB, were synthesized with an elastin protein fragment to generate a covalently cross-linked ELP hydrogel. The two proteins were dissolved in PBS to make 10 wt % solutions. Gelation was initiated by mixing the two components at a 2:3 molar ratio and a stoichiometric amount of AdoB₁₂ in the dark. Dynamic shear rheology experiments in time-, frequency- and strain-sweep modes and erosion tests further confirmed the formation of a stable hydrogel (G′=0.96 kPa and G″=0.03 Pa) by AAA+BCB+AdoB₁₂ (FIGS. 14A-14C, respectively, and FIG. 15).

[2] = molecular target: T1, SpyCatcher-elastin-CarHC-elastin-SpyCatc …; test: Size-exclusion chromatography of the ACA+BCB reaction product and of the light-degraded gel. The major peak eluted at the void volume. The SpyTag-SpyCatcher bond is covalent.
Description: Using an Escherichia coli expression system, sufficient amounts of the ACA (98 mg/L) and BCB (66 mg/L) proteins with high purity (FIG. 6-9) were produced and isolaged. After extensive dialysis against distilled water and lyophilization, the resulting protein powders were readily dissolved in PBS. The two protein solutions, ACA and BCB (10 wt % in PBS), were mixed at an equimolar ratio immediately followed by addition of a stoichiometric amount of AdoB 12 to initiate gelation at room temperature in the dark. A red gel-like material was formed within 5 min; the gelation typically continued for at least 7 h in the dark before any subsequent analysis. The resulting gel was sensitive to light and converted to liquid on exposure to white LED light (30 klux) within 20 min (FIG. 2B). observed gel-sol transition can be explained by the light-induced disassembly of CarHC tetramers (FIGS. 1A & 1B). […] This SEC result further confirmed a sufficient pymerization of the CarHC proteins enabled by the SpyTag-SpyCatcher reaction during gelation.

| Binder | binding result [1] | binding result [2] |
| --- | --- | --- |
| B1 | binds |  |
| B2 |  | binds |
